We go through one variant from IntAct's records for PubMed 17003112.

First the molecules themselves.
B1: Nuclear factor NF-kappa-B p105 subunit (Homo sapiens), P19838 (parent)
chain: MAEDDPYLGRPEQMFHLDPSLTHTIFNPEVFQPQMALPTDGPYLQILEQPKQRGFRFRYVCEGPSHGGLPGASSEKNKKSYPQVKICNYVGPAKVIVQLVTNGKNIHLHAHSLVGKHCEDGICTVTAGPKDMVVGFANLGILHVTKKKVFETLEARMTEACIRGYNPGLLVHPDLAYLQAEGGGDRQLGDREKELIRQAALQQTKEMDLSVVRLMFTAFLPDSTGSFTRRLEPVVSDAIYDSKAPNASNLKIVRMDRTAGCVTGGEEIYLLCDKVQKDDIQIRFYEEEENGGVWEGFGDFSPTDVHRQFAIVFKTPKYKDINITKPASVFVQLRRKSDLETSEPKPFLYYPEIKDKEEVQRKRQKLMPNFSDSFGGGSGAGAGGGGMFGSGGGGGGTGSTGPGYSFPHYGFPTYGGITFHPGTTKSNAGMKHGTMDTESKKDPEGCDKSDDKNTVNLFGKVIETTEQDQEPSEATVGNGEVTLTYATGTKEESAGVQDNLFLEKAMQLAKRHANALFDYAVTGDVKMLLAVQRHLTAVQDENGDSVLHLAIIHLHSQLVRDLLEVTSGLISDDIINMRNDLYQTPLHLAVITKQEDVVEDLLRAGADLSLLDRLGNSVLHLAAKEGHDKVLSILLKHKKAALLLDHPNGDGLNAIHLAMMSNSLPCLLLLVAAGADVNAQEQKSGRTALHLAVEHDNISLAGCLLLEGDAHVDSTTYDGTTPLHIAAGRGSTRLAALLKAAGADPLVENFEPLYDLDDSWENAGEDEGVVPGTTPLDMATSWQVFDILNGKPYEPEFTSDDLLAQGDMKQLAEDVKLQLYKLLEIPDPDKNWATLAQKLGLGILNNAFRLSPAPSKTLMDNYEVSGGTVRELVEALRQMGYTEAIEVIQAASSPVKTTSQAHSLPLSPASTRQQIDELRDSDSVCDSGVETSFRKLSFTESLTSGASLLTLNKMPHDYGQEGPLEGKI

The variants in the test derive from B1. The following applies: with hif1n_human HIF1AN.
On to N678A, for which the “effect of a mutation on the interaction” value was “disrupting interaction strength”.
